The target of assay [1] is T1, human PSMA-Fc (human, UniProt Q04609 44-750).
T1 construct: also called Human PSMA-Fc fusion
The assay is described as follows: Octet. Background: In BLI a coated tip is dipped into the sample, and binding shifts an interference pattern.

Assay [2] concerns the target T1, human PSMA-Fc. The assay is described as follows: Octet. The source holds these as a separate data set.
In assay [3] the target is T1, human PSMA-Fc. Description: Octet, PSMA-Fc. As to the method: Binding affinity of select PSMA PTE variants was tested by Octet.
For a further assay, the target named is T2, human PSMA (human, UniProt Q04609 44-750, limits assumed).
T2 construct: also called huPSMA; hPSMA
The assay is described as follows: binding screen.

T1 sequence (Q04609 44-750 limits assumed): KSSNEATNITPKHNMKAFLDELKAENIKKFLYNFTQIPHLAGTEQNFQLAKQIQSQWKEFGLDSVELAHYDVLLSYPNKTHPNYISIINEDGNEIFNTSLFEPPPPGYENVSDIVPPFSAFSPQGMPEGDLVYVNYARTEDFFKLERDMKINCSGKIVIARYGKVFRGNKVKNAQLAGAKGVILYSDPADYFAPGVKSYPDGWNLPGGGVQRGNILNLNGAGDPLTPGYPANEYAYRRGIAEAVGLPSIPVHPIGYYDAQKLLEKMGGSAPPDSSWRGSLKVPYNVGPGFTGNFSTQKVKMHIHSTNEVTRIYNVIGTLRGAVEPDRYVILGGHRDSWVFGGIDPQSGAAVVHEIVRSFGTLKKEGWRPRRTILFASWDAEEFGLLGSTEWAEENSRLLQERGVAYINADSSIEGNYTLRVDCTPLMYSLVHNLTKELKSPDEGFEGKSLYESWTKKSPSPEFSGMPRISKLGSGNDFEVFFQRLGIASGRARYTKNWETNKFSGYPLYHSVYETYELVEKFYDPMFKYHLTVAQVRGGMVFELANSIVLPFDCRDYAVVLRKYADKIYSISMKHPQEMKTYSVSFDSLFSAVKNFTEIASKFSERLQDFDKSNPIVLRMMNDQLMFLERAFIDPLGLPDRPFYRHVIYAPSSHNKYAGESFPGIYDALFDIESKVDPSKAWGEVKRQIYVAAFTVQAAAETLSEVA
T2 sequence (Q04609 44-750 limits assumed): as above

B1: uTCE of AC3356 (bispecific antibody)
chain: QVQLVESGGGVVQPGRSLRLSCAASGRTFGIYVMGWVRQAPGKEREFVAAISWSGSNRLVSDSVKGRFTISRDNSKNTLYLQMNSLRAEDTAVYYCAASNRLYGRTWYDFNESDYWGQGTQVTVSSGGGGSGGGSEVQLLESGGGIVQPGGSLKLSCAASGFTFNTYAMNWVRQAPGKGLEWVARIRSKYNNYATYYADSVKDRFTISRDDSKNTVYLQMNNLKTEDTAVYYCVRHENFGNSYVSWFAHWGQGTLVTVSSGATPPETGAETESPGETTGGSAESEPPGEGELVVTQEPSLTVSPGGTVTLTCRSSNGAVTSSNYANWVQQKPGQAPRGLIGGTNKRAPGTPARFSGSLLGGKAALTLSGVQPEDEAVYYCALWYPNLWVFGGGTKLTVL
notes: CD3.23 in VH-VL order; also called PSMA.5 (domain swap)
With B1, in the assay with human PSMA-Fc [1], binding was put at a Kd of 2.4 nM, the koff (commonly a measure of how fast the partners let go of each other) came out at 0.00018 s⁻¹ and the kon (usually a measure of how fast the partners come together) is 76000 M⁻¹ s⁻¹. Also, in the assay with human PSMA-Fc [2], the affinity, expressed as Kd, was 2.4 nM.

B2: uTCE of AC3353 (bispecific antibody)
chain: QVQLVESGGGVVQPGRSLRLSCAASGRTFGIYVMGWVRQAPGKEREFVAAISWSGSNRLVSDSVKGRFTISRDNSKNTLYLQMNSLRAEDTAVYYCAASNRLYGRTWYDFNESDYWGQGTQVTVSSGGGGSELVVTQEPSLTVSPGGTVTLTCRSSNGAVTSSNYANWVQQKPGQAPRGLIGGTNKRAPGTPARFSGSLLGGKAALTLSGVQPEDEAVYYCALWYPNLWVFGGGTKLTVLGATPPETGAETESPGETTGGSAESEPPGEGEVQLLESGGGIVQPGGSLKLSCAASGFTFNTYAMNWVRQAPGKGLEWVARIRSKYNNYATYYADSVKDRFTISRDDSKNTVYLQMNNLKTEDTAVYYCVRHENFGNSYVSWFAHWGQGTLVTVSS
notes: also called PSMA.5 (5 mer)
As to B2, in the assay with human PSMA-Fc [1], the Kd (commonly the concentration at which binding is half-saturated) turned out to be 2.1 nM, the koff is 0.00022 s⁻¹ and the kon came out at 110000 M⁻¹ s⁻¹. For the same molecule, in the assay with human PSMA-Fc [2], the Kd came to 2.1 nM.

B3: uTCE of AC3329 (bispecific antibody)
chain: QVQLVESGGGVVQPGRSLRLSCAASGRTFGIYVMGWVRQAPGKEREFVAAISWSGSNRKVSDSVKGRFTISRDNSKNTLYLQMNSLRAEDTAVYYCAASNRLYGRTWYDFNESDYWGQGTQVTVSSGGGGSGGGSELVVTQEPSLTVSPGGTVTLTCRSSNGAVTSSNYANWVQQKPGQAPRGLIGGTNKRAPGTPARFSGSLLGGKAALTLSGVQPEDEAVYYCALWYPNLWVFGGGTKLTVLGATPPETGAETESPGETTGGSAESEPPGEGEVQLLESGGGIVQPGGSLKLSCAASGFTFNTYAMNWVRQAPGKGLEWVARIRSKYNNYATYYADSVKDRFTISRDDSKNTVYLQMNNLKTEDTAVYYCVRHENFGNSYVSWFAHWGQGTLVTVSS
notes: also called PSMA.119
As for B3, the results for the Kd with human PSMA-Fc [3], in the assay with human PSMA and with human PSMA-Fc [2] were 3.2 nM, 4.1 nM and 3.2 nM, respectively. The koff in the assay with human PSMA-Fc [3] is 0.000248 s⁻¹. The molecule also yielded an association rate constant (kon) with human PSMA-Fc [3] of 80000 M⁻¹ s⁻¹.

B4: uTCE of AC3342 (bispecific antibody)
chain: QVQLVESGGGVVQPGRSLRLSCAASGRTFGIYVMGWVRQAPGKEREFVAAISWSGSNRLVSDSVKGRFTISRDNSKNTLYLQMNSLRAEDTAVYYCAASNKLYGRTWYDFNESDYWGQGTQVTVSSGGGGSGGGSELVVTQEPSLTVSPGGTVTLTCRSSNGAVTSSNYANWVQQKPGQAPRGLIGGTNKRAPGTPARFSGSLLGGKAALTLSGVQPEDEAVYYCALWYPNLWVFGGGTKLTVLGATPPETGAETESPGETTGGSAESEPPGEGEVQLLESGGGIVQPGGSLKLSCAASGFTFNTYAMNWVRQAPGKGLEWVARIRSKYNNYATYYADSVKDRFTISRDDSKNTVYLQMNNLKTEDTAVYYCVRHENFGNSYVSWFAHWGQGTLVTVSS
notes: Linker given only as 9 residues; also called PSMA.132
In the assay with human PSMA-Fc [3], B4 showed a Kd of 5.6 nM, a koff of 0.000479 s⁻¹ and a kon of 86600 M⁻¹ s⁻¹. Binding with human PSMA-Fc [2] was put at a Kd of 5.6 nM.

The record behind these values is US20260055205A1 (published 2026).
